The assay has as its target RPP1^TIR (residue 83-254) (Arabidopsis) (UniProt F4J339). The assay is described as follows: crystal structure.

In the case of “RPP1^TIR (residue 83-254) (from UniProt F4J339 83-254) (domain or fragment)”, the stoichiometry N turned out to be 4.

Broadly, the stoichiometry N is a count of units in the complex or per binding partner.

The values are drawn from publication doi:10.1101/2022.05.02.490369.
